Data as given in a protein production outcome set (Wang et al. 2014).

Experiment: label from the status in PepcDB records

Row | Sequence | protein production
1 | MFNGMVRTIRDSVVGTYPSCHVSSRLEERRAKQRAMRQERRRKPDKPDDFVTYEDSGSDEETPQQQEEVLNTSYNLCDYLRSRESGLRDRRSVNVEYTSRYVLTHDMLRETQISLGYINKVFCSKWLSSRQVVFGTKCNKLLVYDVNMRRVDAIPTLSNSRANHPEVQGGLHAIELSPSRSFLATGARNSSDIAVYRLPTLDPVCVGEGGHRDLIMGMCWLDDQFLVSGSKDSRMALWRINEDHMEFPDGGEEACPTFATIHPLSVKEVRTAQRIRSLCFNKEFKEIAALSLNGYIHIFNAETFKQTLSRKLPNCQDNVSIAYHSDGLYAVGCRSYTILLDARTLQTIKKITSRYSGCGIRATSFEGNLLTVGTGLGMLLFYDIRAGKYLESSVNASRTVALKCSKGIVYPEDEMDGFQQVKYVPAIYTHCYDSTRMRLFAAGGPLPATLVGNYAGVWQ | failed
2 | MFNNDRLLVQILLLALFGACLWVMAPFWSALVWGAVLAFASWPLMRLLTRWFKGRESLAALVMCLCWMLLVAAPLVWLGFNLADHVRDATALIKDIQVDGLPDPPQWLAGIPLVGERLVGLWTTIDQQGAAFMTTVKPYLGEVGNWLLARSAQIGGGILELTLSIVFAFFFYRDGPRLAAFVLSLLERLIGDRAQYYLDLVAGTVQRVVNGVIGTAAAQALLALIGFLIAGIPGALVLGILTFLFSLIPMGPPLVWLPATAWLVWQGEYGMAIFLGIWGMFVISGVDNVLKPYLISRGGNLPLVIVLLGVFGGLLAFGFIGLFIGPTLLAVAYSLLTDWVGSERARNPR | failed
3 | MFPFGPHSPGGDETAGAEEPPPLGGPAAASRPPSPAPRPASPQRGADAASPPPVAGSPRLPGGPAVSPAERAGEFAAPGALELSAATASASQAKLSPSSSPRRRSRPDWRAGGRSRQGLGAGLGGPGARLFGWLRERSLGRGLFVDPARDNFRTMTNLYGSIHPADSVYLSTRTHGAVFNLEYSPDGSVLTVACEQTEVLLFDPISSKHIKTLSEAHEDCVNNIRFLDNRLFATCSDDTTIALWDLRKLNTKVCTLHGHTSWVKNIEYDTNTRLLVTSGFDGNVIIWDTNRCTEDGCPHKKFFHTRFLMRMRLTPDCSKMLISTSSGYLLILHELDLTKSLEVGSYPILRARRTTSSSDLTTTSSSSGSRVSGSPCHHNDSNSTEKHMSRASQREGVSPRNSLEVLTPEVPGERDRGNCITSLQLHPKGWATLLRCSSNTDDQEWTCVYEFQEGAPVRPVSPRCSLRLTHYIEEANVGRGYIKELCFSPDGRMISSPHGYGIRLLGFDKQCSELVDCLPKEASPLRVIRSLYSHNDVVLTTKFSPTHCQIASGCLSGRVSLYQPKF | failed
4 | MFPLTEENKHVAQLLLNTGTCPRCIFRFCGVDFHAPYKLPYKELLNELQKFLETEKDELILEVMNPPPKKIRLQELEDSIDNLSQNGEGRISVSHVGSTASKNSNLNVCNVCLGILQEFCEKDFIKKVCQKVEASGFEFTSLVFSVSFPPQLSVREHAAWLLVKQEMGKQSLSLGRDDIVQLKEAYKWITHPLFSEELGVPIDGKSLFEVSVVFAHPETVEDCHFLAAICPDCFKPAKNKQSVFTRMAVMKALNKIKEEDFLKQFPCPPNSPKAVCAVLEIECAHGAVFVAGRYNKYSRNLPQTPWIIDGERKLESSVEELISDHLLAVFKAESFNFSSSGREDVDVRTLGNGRPFAIELVNPHRVHFTSQEIKELQQKINNSSNKIQVRDLQLVTREAIGHMKEGEEEKTKTYSALIWTNKAIQKKDIEFLNDIKDLKIDQKTPLRVLHRRPLAVRARVIHFMETQYVDEHHFRLHLKTQAGTYIKEFVHGDFGRTKPNIGSLMNVTADILELDVESVDVDWPPALDD | failed
5 | MFQDPTDEYIRTITAHCDLAGKEVLEVGCGTGRITRDLARHARRVVAVDPDETALAKARSAVPAPNVQFLPMPDGVLHFPPASFDVVIHTLSLHHVPLDRMNESLRAAAGLVRDGGVIVVVEPGDGGSFTEAKERFGAGSGDERPGREAAIRAMHGLDGWTVGETVLFRVRFLFADEDDFIATKLPGFGEKPEAFQQEVREFLARHRTAEGVVLDAGRRLNVLRRG | failed
6 | MFQSKSRTSLTNKKTLLFGLISVFLCGMGFSIIMPVVPFLVTPYVTNASDQALMVTLLTSVYAFCVFFAAPGLGALSDRFGRRPVLLICFIGSAIGYFIFGLGGALWVLFLGRIIEGITGGSISTLFAFFADITPQEERTKYFGWVSAAAGAGAALGPAFGGLLAHFGYAMPFFFGATITFINFLFGYFYMPESLDDANRLKRIPLMRLNPFSQLLNILTIKNLGRLLIAAFFIWVPNGSLQAVMSQFAIDSFSWKPALIGMMFSIMGIQDILSQAFVMPKLLIRLTDKQIAVLGMIAEIIGYSLIATSSIFTLAPLLVIGMFVFGFGDSIFGPSFNGMVSKAASASEQGRIQGGSQAIQSLARIIGPIIGGQIYITLGHAAPAIMGVLLITVAIFILYKKTSLAK | failed
7 | MFRPPSIKDAKKIWELIGRCKPLDINSPYCYALIGRDFFDSSIVYEEEGRIKGVVIGYLRPRAPERLFVWQVAIEAKSRGKGIAKRAIEAILKNLERKGHCIQAIEATYTPSNLASKALFHALGREWKVVWIEENFLEGALLSAQEAHEEEWLITLPFSSEALGVQGANHANL | failed
8 | MFSGCVERSTRVLQDQEGDTVTSSPAGNKLPNINGLRDSNPRHSLGYRVQHRARTVVASVIVAMLVFAGTAAAATWLDVDNVIQHQKVDVIGQGSVSAEPTIIDPNSGKPIEILLLGQDSRDGEGNQAIGGDMTGNHQADTAMVLQISADRSAINLVSIPRDSLVDVPQCETSKGTIPAQYGVMFNSIFAGAYQTGGDLASAASCTLNAVNSLTGLNIQNFIVVDFAGLVKMIDAIGGVDICVPQDIDDPYSTLQLSKGMQHLDGTQATQYARTRYTLGDGSDTARTTRQQYLIKQLMSEALSKNLFTDTAQLYQLAKSALESLNISEGMADTAALVGLAMSLKNFNMSHLYTQTVPVVAAPSDPNRSVWADNADEVWAKMREGKSLFESTETNATSTDSTTTDGTTESQNTDENSGEQAQSTETPDATTGLITRADGTLIDPNTGGTVDPEDGSIHDATTGQYIGIADRYLNATVCAVPAKN | failed
9 | MFSLKNYSPSPLLSAKAKEYLVFTLVTLTIVVAGTLLFLFDPASSKLFPPSPFRSLTGLYCPGCGTLRALHQLLHGNLVGAFGLNPLMMISLPFMIYSYVAYGLKTINGRTLLVWFVPPKVIWFILQAILAYWVARNIPFAPFSWLAP | failed
10 | MFSNQYIQQRIHKANSLREEGKNPYQNGLKRSLTNAAFLEKYAYVKGLEEPKDKEKCESIVGRVKLLRLMGKACFIKVEDESTILQVYVSQNELNDEFKSLKKHLEVGDIVLVKGFPFATKTGELSIHALEFHILSKTIVPLPEKFHGLSDIELRYRQRYLDLIVNPSVKDVFKKRSLIVSSVRKFFEMEGFLEVETPMMHPIPGGANARPFITYHNALEVERYLRIAPELYLKRLIVGGFEAVFEINRNFRNEGMDHSHNPEFTMIEFYWAYHTYEDLIELSKRLFDYLLKTLNLDSKIIYNDMEVDFNQTSVISYLDALETIGGISKDILEKEDRLLAYLLEQGIKVEPNLTYGKLLAEAFDHFVEHQLINPTFVTQYPIEISPLARRNDSNPNIADRFELFIAGKEIANGFSELNDPLDQLERFKNQVAEKEKGDEEAQYMDEDYVWALAHGMPPTAGQGIGIDRLVMLLTGAKSIKDVILFPAMRPVKNDFNVESEE | failed
11 | MFSPQAYLIFNMRKPPFDNIKVRQAVMHAFNRKLVVDNIFFGLGKISTSPFVPTEMFFDKDIPAIPFDMKKARALIKESGINPGDYTIRQLSFPYGATWDRLGEYTKQALEQLGFKVNVESTDAGGWASRTGNWDFDLTTTYSYQYGDPALGVQRLYVTSNIVKGSPFANMQGYSNPESDKLWEQAAAEVDPAKRQELYNKIQALLVAEVANGFLVDME | failed
12 | MFSRKDIIVLGMMIFALFLGAGNIIFPPMEGFSSGQHWTSASLGFVLTGVLMPFITLVVVAILGRGEELTKDLPKWAGTGFLVILYLTIGSTFAMPRITNVAYEMAWLPLGLTENNANVRFVFSLIFNLIAMGFMISPNTIISSVGKFMTPALLVLLIAVAITVFISPLSEIQAPSNAYENSHSLLIGLTSGYQTMDVLAAIAFGGIVARALSAKNVTKTKDIVKYTISAGFVSVILLAGLYFSLFYLGATSAAVAEGATNGGQIFSRYVNVLFGSAGTWIMAGIIVLASLTTLVGVTSASADYFSKFSVRFSYPFWAALFTAMTITVSQYGLTDLLRITIPALLLIYPVAIVLVLLQFLRKKLPSIKFTYNSTLLVTVCFSLCDSLNNVKMLPESINSLLKHFPLSSEGMAWLVPTLVMLVASIFIGKALHKTHS | failed
13 | MFTDLDLALFFIIIFIVLFIGYIAYFWRKPDDIHKHGEWSLGGRRFGTVVVWFLLGGDLYTAYTLIAVPGAAATPGIGGGAFAMFAITYGIMIYPIVYGTMPRLYNVSKKRGYITAADFVKDRFSSRFLAMLIALTGVLAELPYIALQITGIKYVLASLSLPISISLIIAFLLVAGFTFVSGLRGPALTAIIKDAIIWAAVLVIIVYIPLKLHGFGNIFSKAATISPNLLDISPTIDIGYVSLALGSALALFLYPHAVTGTLGSKDVKTIKRNAALLPLYNVLLMFVAIIGIMSVVYFNAYPKVSSEALPLLVLHVFPSTFTAFAFAAIVVGSIVPASIMALASANLLTRNLYLEYINPNATEKAQTNLSRVLVVVVIVAALAFSLVPAASGEIVYLQTIGGAIIMQTLPSVYLALFTRKLNKYPVGLGWLAGLATTMILLVDLHFKTSLYKGFFFMYVGIIALLINLAVVGLGMLIMAAMHRIKNEGIIEDHEFLDE | failed
14 | MFTTTSFPDFDSAAQATLTYLHQRMGLSLWMITRTEVDNWIVLQAQDNGYGVKRGDVFHWPDSFCSRMVRGEGPHIAPQSNLVEAYRNAPIAQQVDIGAYVGVPITYGNGSLFGTLCAIDPEIQPDSLVDELPLVELIAQLLSTILDFFLKAEIASRREEYQQLLKERDGTTGFYSLSGWEKLLASEEIRCQKFGFPVSVIIVEVEAAEPKGEEPINDLILQRAAKIIKTVCRQDDFCARIGEREFAILCIECHISQADFIRERLALGFEQGKITADIGIGERSPEKGLLDAMETAKSAAHEQKKFRVKTEG | failed
15 | MFVAFNFNKIESITTEKEFKIILNDQIALGKIPDFSKIKITIKVNKDDLKYLDLNKIILFIEASSIKIPGSYKLPIKIKNLNSIHIAEYKLSKTNVLLNLDNKVSKLVKIEPKFKLEHHHHHH | failed
16 | MFVAREHELQVLEKLFTSDSFEMVVLYGRRRVGKTALIDEFVKDKRVLYFTAIQQSAKMNLEDFSRAALSFFGMPDSTPSFGGWSDALSFVAERAAQTDERMVFVFDEFPYAAAAEPALPSMLQIAIDHGFLATKVTMILSGSNEGFMENDVLGRKSPLYGRRTAQIRLLPFDYADAAKFLTNTSPQELVQYYATFGGTPYYLARIQEADGFESNVLRLMFDNLGVLREEPMMLLRQELREPASYYSILQSIAGGNSSPKLIAEHAGVGSDSIGAYLKTLVDLRLIERKVPFGEDPSKSRKGMYVVSDPFFAYWFRFVGRNMSILDGNISEEVTSRLAFGPAFDTYVGQQFETICLQWLIRNNAMGNLPFVATQFGKWWGNDPIAHEQTDIDVIAADSLDKTILFGECKWRNSFNETEAIEKLHQRAGLVRGYQAGNAWLMLFTKNPVSESTRTRYMDDERMVFVSAEELYTALEHHHHHH | failed
17 | MFVELNNLLNTTPDRAEQGKLTLLCDAKTDGSFLVHHFLSFYLKANCKVCFVALIQSFSHYSIVGQKLGVSLTMARERGQLVFLEGLKSAVDVVFQAQKEPHPLQFLREANAGNLKPLFEFVREALKPVDSGEARWTYPVLLVDDLSVLLSLGMGAVAVLDFIHYCRATVCWELKGNMVVLVHDSGDAEDEENDILLNGLSHQSHLILRAEGLATGFCRDVHGQLRILWRRPSQPAVHRDQSFTYQYKIQDKSVSFFCQRNVSCCSVT | not failed
